In US20220331363A1 (SHANGHAI GENBASE BIOTECHNOLOGY, published 2022) one finds EC50 data, which are given here for three molecules.

Residue numbers refer to the chain shown, from its start.

Assay [1] addresses T1, human BCMA expressed on human multiple myeloma cells (U266, MM.1S, RPMI8226) (human, UniProt Q02223 1-184).
T1 construct: whole, on cells; Endogenous BCMA on tumor cell lines; also called BCMA-expressing tumor cells; BCMA+ cell line
T1 sequence (looked up): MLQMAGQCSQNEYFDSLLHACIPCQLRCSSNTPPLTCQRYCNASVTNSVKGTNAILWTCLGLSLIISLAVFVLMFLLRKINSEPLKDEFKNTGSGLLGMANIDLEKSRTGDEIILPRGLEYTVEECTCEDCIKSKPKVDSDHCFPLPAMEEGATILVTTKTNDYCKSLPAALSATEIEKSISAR
Briefly: flow cytometry (FACS) on U266 cells. As for the experimental part: (§1) Cells (human myeloma cells expressing BCMA or tissue cells not expressing BCMA) were digested, and 500,000 cells were seeded in 50 μL of PBS containing 2% FBS (FACS buffer) in a U-bottom 96-well plate. The test samples were subjected to a 3-fold serial dilution by diluting ⅓ volume (100 μL) in 200 μL of FACS buffer, starting at a concentration of 300 μg/mL (final concentration). 50 μL of the diluted antibody was added to each well of the cell plate and incubated at 4° C. for 1 hour. After washing twice with FACS buffer, 100 μL of secondary antibody (Abcam ab97003, 5 μg/mL, diluted in FACS buffer) was added to each well, and incubated at 4° C. for 0.5 hours. After staining and washing twice with FACS buffer, 200 μL of FACS buffer was added to each well, and reading was performed on the machine (BD C6plus).

The target of assay [2] is T1, human BCMA expressed on human multiple …. Briefly: flow cytometry (FACS) on MM.1S cells. How it is done: as §1
Assay [3] shares this target. The experiment in a line: flow cytometry (FACS) on RPMI8226 cells. How it is done: as §1
Assay [4] deals with T2, recombinant human BCMA protein (Sino Biological, 10620-H08H) (human, UniProt Q02223 1-54).
T2 construct: Bought protein, coated on the ELISA plate
T2 sequence (looked up): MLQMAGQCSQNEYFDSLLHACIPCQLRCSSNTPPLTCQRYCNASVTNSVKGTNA
Briefly: ELISA, BCMA protein coated at 1 µg/mL, HRP anti-human secondary antibody. How it is done: The binding activity of the antibodies to human BCMA protein was assessed using an ELISA method, and the antibody potency was compared using dose-dependent binding curves in ELISA.
BCMA protein (Sino Biological, 10620-H08H) was diluted to 1 μg/mL in PBS, 100 μL of the protein solution was added to each well of the ELISA plate and incubated at 4° C. overnight. The plate was washed 3 times in wash buffer (PBS, 0.05% Tween 20), and non-specific sites were blocked by adding 200 μl/w PBS+2% BSA blocking solution. C11D5.3-03, C11D5.3-04 or murine antibody C11D5.3 was added and incubated at 37° C. for 2 h. The plate was washed 3 times in wash buffer, and HRP-conjugated goat anti-human secondary antibody was added and incubated for 1 h at room temperature. The plate was washed 3 times in wash buffer, and the bound secondary antibody was detected by adding TMB (HRP substrate) and incubating the plate in the dark at room temperature for 5 to 10 minutes. The enzymatic reaction was stopped by adding 1M of sulfuric acid solution, and the light absorption at 450 nm was measured.

For assay [5], the target named is human Burkitt's lymphoma cell Daudi. The experiment in a line: flow cytometry (FACS) on Daudi cells, which Example 3 says do not express BCMA. How it is done: as §1

B1: humanized anti-BCMA antibody C11D5.3-03 (scFv) (scFv, V domains shown)
VH: QIQLVQSGSELKKPGASVKVSCKASGYTFTDYSINWVRQAPGQGLEWMGWINTETREPAYAQGFTGRFVFSLDTSVSTAYLQISSLKAEDTAVYFCALDYSYAMDYWGQGTLVTVSS
VL: EIVLTQSPATLSMSLGERATLSCRASQSVTILGSHLIHWYQQKPGQPPRLLIQLASNVQTGIPARFSGSGSRTDFTLTISSLEEEDFAVYYCLQSRTIPRTFGGGTKVEIK
notes: For the soluble protein it states neither the domain order nor the linker
On to B1, for which the EC50 came out at 7.57 µg/mL in assay [1]; 0.81 µg/mL in assay [2]; 2.25 µg/mL in assay [3]; 0.011 µg/mL in assay [4]; 36.3 µg/mL in assay [5].

B2: humanized anti-BCMA antibody C11D5.3-04 (scFv) (scFv, V domains shown)
VH: B1 VH with I34M, A59T
VL: B1 VL with Q27E, V58R, Q59A
notes: as for B1
Consider B2, for which the EC50 in assay [1] amounted to 1.99 µg/mL; in assay [2], 0.47 µg/mL; in assay [3] it was 0.82 µg/mL; in assay [4], 0.011 µg/mL; in assay [5], 30.7 µg/mL.

B3: murine anti-BCMA antibody C11D5.3 (scFv), reference antibody (scFv, V domains shown)
VH: QIQLVQSGPELKKPGETVKISCKASGYTFTDYSINWVKRAPGKGLKWMGWINTETREPAYAYDFRGRFAFSLETSASTAYLQINNLKYEDTATYFCALDYSYAMDYWGQGTSVTVSS
VL: DIVLTQSPPSLAMSLGKRATISCRASESVTILGSHLIHWYQQKPGQPPTLLIQLASNVQTGVPARFSGSGSRTDFTLTIDPVEEDDVAVYYCLQSRTIPRTFGGGTKLEIK
Take B3: the EC50 in assay [1] amounted to 4.4 µg/mL; in assay [2], 1.62 µg/mL; in assay [3], 3.81 µg/mL; in assay [4], 0.011 µg/mL.
